Test results from publication PMC5725882 (Cell Discovery, 2017).

What was measured:
Conditions in all cases: both partners purified
[1] = target: T1, full-length wild-type p97 (^FLp97^wt) (UniProt P55072 1-806); assay: pull-down; GST-VIMP variants on glutathione resin, p97 proteins in solution; 20 mM Tris pH 8.0, 150 mM NaCl, 3 mM MgCl2, 10% glycerol, 0.1% Triton X-100, 4 C, 2 mM ATPγS or AMP-PNP (Figures 3b and 4e: AMP-PNP); SDS-PAGE
T1 construct: p97 (valosin-containing protein, VCP), full-length, residues 1-806; also called VCP; valosin-containing protein; source: purified; expression and purification as described previously [13, 42, 44]
T1 sequence (P55072 whole entry, the tested form may be a part): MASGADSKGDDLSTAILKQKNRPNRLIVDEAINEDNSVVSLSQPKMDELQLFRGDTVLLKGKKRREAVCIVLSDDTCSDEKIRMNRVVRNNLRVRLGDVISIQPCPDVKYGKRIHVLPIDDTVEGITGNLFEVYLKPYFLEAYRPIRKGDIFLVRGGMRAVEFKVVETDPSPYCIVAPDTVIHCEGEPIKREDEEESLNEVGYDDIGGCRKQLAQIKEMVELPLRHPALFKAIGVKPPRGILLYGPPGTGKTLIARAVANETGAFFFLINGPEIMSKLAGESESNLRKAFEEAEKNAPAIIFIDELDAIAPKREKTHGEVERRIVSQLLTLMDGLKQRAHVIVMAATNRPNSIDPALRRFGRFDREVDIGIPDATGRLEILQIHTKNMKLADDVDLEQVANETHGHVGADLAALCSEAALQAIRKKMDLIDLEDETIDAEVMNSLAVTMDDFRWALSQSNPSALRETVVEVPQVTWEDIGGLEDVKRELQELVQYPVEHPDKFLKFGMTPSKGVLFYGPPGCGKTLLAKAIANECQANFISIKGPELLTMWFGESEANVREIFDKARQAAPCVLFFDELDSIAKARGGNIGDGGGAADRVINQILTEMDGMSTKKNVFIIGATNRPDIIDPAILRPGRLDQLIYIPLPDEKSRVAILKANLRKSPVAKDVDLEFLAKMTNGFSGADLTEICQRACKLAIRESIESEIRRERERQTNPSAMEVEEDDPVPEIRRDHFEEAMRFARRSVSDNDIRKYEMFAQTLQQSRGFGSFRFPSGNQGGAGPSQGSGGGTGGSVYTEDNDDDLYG

[2] = target: T2, full-length p97 R155H (^FLp97^mt) (UniProt P55072 1-806, R155H); assay: as above
T2 construct: p97 (VCP), full-length, residues 1-806, MSP1-associated mutation R155H; also called FLp97 R155H; pathogenic p97 variant R155H; source: purified; expression and purification as described previously [13, 42, 44]
T2 sequence (P55072 whole entry R155H, the tested form may be a part): as the sequence (P55072 whole entry, the tested form may be a part) above, with R155H counted along it

[3] = target: T3, full-length p97 L198W (^FLp97^mt) (UniProt P55072 1-806, L198W); assay: as above
T3 construct: p97 (VCP), full-length, residues 1-806, MSP1-associated mutation L198W; also called FLp97 L198W; pathogenic p97 variant L198W; source: purified; expression and purification as described previously [13, 42, 44]
T3 sequence (P55072 whole entry L198W, the tested form may be a part): as the sequence (P55072 whole entry, the tested form may be a part) above, with L198W counted along it

[4] = target: T4, full-length p97 A232E (^FLp97^mt) (UniProt P55072 1-806, A232E); assay: as above
T4 construct: p97 (VCP), full-length, residues 1-806, MSP1-associated mutation A232E; also called FLp97 A232E; pathogenic p97 variant A232E; source: purified; expression and purification as described previously [13, 42, 44]
T4 sequence (P55072 whole entry A232E, the tested form may be a part): as the sequence (P55072 whole entry, the tested form may be a part) above, with A232E counted along it

[5] = target: T5, N-D1 fragment of wild-type p97, long form (^ND1p97^wt, residues 1-480) (UniProt P55072 1-480); assay: as above
T5 construct: p97 (VCP), N-D1 fragment, residues 1-480 (the form used in pull-down and ITC); also called N-D1 long; source: purified; expression and purification as described previously [13, 42, 44]
T5 sequence (P55072 1-480): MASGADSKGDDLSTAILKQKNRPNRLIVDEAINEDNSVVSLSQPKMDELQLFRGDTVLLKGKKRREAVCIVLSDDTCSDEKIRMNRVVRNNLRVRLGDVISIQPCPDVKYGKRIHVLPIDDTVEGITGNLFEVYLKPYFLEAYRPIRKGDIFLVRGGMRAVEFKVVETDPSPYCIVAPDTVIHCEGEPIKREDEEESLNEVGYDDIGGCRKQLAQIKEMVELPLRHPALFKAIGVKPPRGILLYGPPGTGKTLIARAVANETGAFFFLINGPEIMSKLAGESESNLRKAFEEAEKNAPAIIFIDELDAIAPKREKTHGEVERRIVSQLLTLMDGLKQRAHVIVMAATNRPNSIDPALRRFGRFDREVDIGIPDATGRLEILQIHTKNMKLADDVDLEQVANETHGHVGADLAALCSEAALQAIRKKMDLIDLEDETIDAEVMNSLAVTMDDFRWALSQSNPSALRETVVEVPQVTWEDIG

[6] = target: T6, N-D1 fragment of p97 R155H, long form (^ND1p97^mt, residues 1-480) (UniProt P55072 1-480, R155H); assay: as above
T6 construct: p97 (VCP), N-D1 fragment, residues 1-480, pathogenic mutation R155H; also called ND1p97 R155H; source: purified; expression and purification as described previously [13, 42, 44]
T6 sequence (P55072 1-480 R155H): as the sequence (P55072 1-480) above, with R155H counted along it

[7] = target: T7, N-D1 fragment of p97 L198W, long form (^ND1p97^mt, residues 1-480) (UniProt P55072 1-480, L198W); assay: as above
T7 construct: p97 (VCP), N-D1 fragment, residues 1-480, pathogenic mutation L198W; also called ND1p97 L198W (1-480); source: purified; expression and purification as described previously [13, 42, 44]
T7 sequence (P55072 1-480 L198W): as the sequence (P55072 1-480) above, with L198W counted along it

[8] = target: T8, N-D1 fragment of p97 A232E, long form (^ND1p97^mt, residues 1-480) (UniProt P55072 1-480, A232E); assay: as above
T8 construct: p97 (VCP), N-D1 fragment, residues 1-480, pathogenic mutation A232E; also called ND1p97 A232E (1-480); source: purified; expression and purification as described previously [13, 42, 44]
T8 sequence (P55072 1-480 A232E): as the sequence (P55072 1-480) above, with A232E counted along it

[9] = target: T9, ND1p97wt (N-D1 fragment of wild-type p97, residues 1-480) (UniProt P55072 1-480); assay: ITC; VIMPx titrated into p97; iTC200, 25 C; 50 mM Tris pH 8.0, 150 mM NaCl, 2 mM MgCl2, 5% glycerol; 2 mM ADP in both samples; one-site model
T9 construct: p97 (valosin-containing protein, VCP), N-D1 long fragment, residues 1-480, wild type; also called N-D1 long; ND1p97 (residue 1-480)
T9 sequence (P55072 1-480): as the sequence (P55072 1-480) above

[10] = target: T9, ND1p97wt (N-D1 fragment of wild-type …); assay: ITC; VIMPx titrated into p97; iTC200, 25 C; 50 mM Tris pH 8.0, 150 mM NaCl, 2 mM MgCl2, 5% glycerol; 2 mM AMP-PNP in both samples; one-site model
[11] = target: T10, FLp97wt (full-length wild-type p97, residues 1-806) (UniProt P55072 1-806); assay: as above
T10 construct: p97 (valosin-containing protein, VCP), full length, residues 1-806, wild type; also called VCP; valosin-containing protein
T10 sequence (P55072 whole entry, the tested form may be a part): as the sequence (P55072 whole entry, the tested form may be a part) above

Binder | binding result [1] | binding result [2] | binding result [3] | binding result [4] | binding result [5] | binding result [6] | binding result [7] | binding result [8] | Kd [9] [µM] | stoichiometry N [9] | Kd [10] [µM] | stoichiometry N [10] | Kd [11] [µM] | stoichiometry N [11]
AVEPDVVVKRQEALAAARLKMQEELNAQVEKHKEKLKQLE (domain or fragment, UniProt Q9BQE4 69-108, looked up, VIMP (selenoprotein S), 40 residues A69-E108; source: held on glutathione resin) [GST-VIMP minimal fragment (A69-E108)] | binds | – | – | – | – | – | – | – | – | – | – | – | – | –
GST-tagged cytosolic segment of VIMP (GST-VIMPc, residues 49-187) (domain or fragment, UniProt Q9BQE4 49-187, looked up, source: held on glutathione resin) QKLSARLRALRQRQLDRAAAAVEPDVVVKRQEALAAARLKMQEELNAQVEKHKEKLKQLEEEKRRQKIEMWDSMQEGKSYKGNAKKPQEEDSPGPSTSSVLKRKSDRKPLRGGGYNPLSGEGGGACSWRPGRRGPSSGG | binds | binds | binds | binds | binds | binds | binds | binds | – | – | – | – | – | –
VIMPx (VCP-interacting membrane protein, residues 49-122) (domain or fragment, UniProt Q9BQE4 49-122, looked up, VIMP (selenoprotein S), fragment of the cytosolic segment, residues 49-122 (stop codon after M122); also called His-VIMPx; selenoprotein S; source: E. coli BL21(DE3), purified (Ni-NTA, Superdex 75)) QKLSARLRALRQRQLDRAAAAVEPDVVVKRQEALAAARLKMQEELNAQVEKHKEKLKQLEEEKRRQKIEMWDSM | – | – | – | – | – | – | – | – | 6.21 ± 0.85 | 1.13 ± 0.06 | 5.52 ± 0.26 | 0.98 ± 0.05 | 7 ± 0.13 | 0.66 ± 0.08
